Substitutions are numbered along the chain they refer to.
B1: 022817-K08 (protein)
chain: MALPVTALLLPLALLLHAARPQIVLTQSPATLSASPGEKATMTCSASSGVNYMHWYQQKPGTSPKRWIYDTDKTASGVPARFSGSGSGTSYSLTISSMEAEDAATYYCHQRGSYTFGGGTKLEIKLEEQKLISEEDLGSGEDLKNVFPPEVAVFEPSKAEIAHTQKATLVCLATGFYPDHVELSWWVNGKEVHSGVCTDPQPLKEQPALNDSRYCLSSRLRVSATFWQNPRNHFRCQVQFYGLSENDEWTQDRAKPVTQIVSAEAWGRADCGITSASYHQGVLSATILYEILLGKATLYAVLVSALVLMAMVKRKDSRGRAKRSGSGATNFSLLKQAGDVEENPGPTSMDWIWRILFLVGAATGAHSFEQVQLEQPGAEVVKPGASVKVSCKTSGYTFTSNWMHWVKQTPGKGLEWIGEIDPSDSYTNYNQKFDGKAKLTVDKSSSTAYMEVSDLTAEDSATYYCARGSNPYYYAMDYWGQGTSVTVSSTREQKLISEEDLGSGIQNPDPAVYQLRDSKSSDKSVCLFTDFDSQTNVSQSKDSDVYITDKCVLDMRSMDFKSNSAVAWSNKSDFACANAFNNSIIPEDTFFPSSDVPCDVKLVEKSFETDTNLNFQNLSVIGFRILLLKVAGFNLLMTLRLWSSRAKRSGSGVKQTLNFDLLKLAGDVESNPGPSRGHMTEYKPTVRLATRDDVPRAVRTLAAAFADYPATRHTVDPDRHIERVTELQELFLTRVGLDIGKVWVADDGAAVAVWTTPESVEAGAVFAEIGPRMAELSGSRLAAQQQMEGLLAPHRPKEPAWFLATVGVSPDHQGKGLGSAVVLPGVEAAERAGVPAFLETSAPRNLPFYERLGFTVTADVEVPEGPRTWCMTRKPGA
B2: 022817-J01 (protein)
chain: MALPVTALLLPLALLLHAARPLEGKPIPNPLLGLDSTGSGEDLKNVFPPEVAVFEPSKAEIAHTQKATLVCLATGFYPDHVELSWWVNGKEVHSGVCTDPQPLKEQPALNDSRYCLSSRLRVSATFWQNPRNHFRCQVQFYGLSENDEWTQDRAKPVTQIVSAEAWGRADCGITSASYHQGVLSATILYEILLGKATLYAVLVSALVLMAMVKRKDSRGRAKRSGSGATNFSLLKQAGDVEENPGPTSMALPVTALLLPLALLLHAARPQIVLTQSPATLSASPGEKATMTCSASSGVNYMHWYQQKPGTSPKRWIYDTDKTASGVPARFSGSGSGTSYSLTISSMEAEDAATYYCHQRGSYTFGGGTKLEIKGGGGSGGGGSGGGGSQVQLEQPGAEVVKPGASVKVSCKTSGYTFTSNWMHWVKQTPGKGLEWIGEIDPSDSYTNYNQKFDGKAKLTVDKSSSTAYMEVSDLTAEDSATYYCARGSNPYYYAMDYWGQGTSVTVSSTREQKLISEEDGSGIQNPDPAVYQLRDSKSSDKSVCLFTDFDSQTNVSQSKDSDVYITDKCVLDMRSMDFKSNSAVAWSNKSDFACANAFNNSIIPEDTFFPSSDVPCDVKLVEKSFETDTNLNFQNLSVIGFRILLLKVAGFNLLMTLRLWSSRAKRSGSGVKQTLNFDLLKLAGDVESNPGPSRGHMTEYKPTVRLATRDDVPRAVRTLAAAFADYPATRHTVDPDRHIERVTELQELFLTRVGLDIGKVWVADDGAAVAVWTTPESVEAGAVFAEIGPRMAELSGSRLAAQQQMEGLLAPHRPKEPAWFLATVGVSPDHQGKGLGSAVVLPGVEAAERAGVPAFLETSAPRNLPFYERLGFTVTADVEVPEGPRTWCMTRKPGA
B3: 102116-D01 (protein)
chain: MALPVTALLLPLALLLHAARPLEGKPIPNPLLGLDSTGSGEDLKNVFPPEVAVFEPSKAEIAHTQKATLVCLATGFYPDHVELSWWVNGKEVHSGVCTDPQPLKEQPALNDSRYCLSSRLRVSATFWQNPRNHFRCQVQFYGLSENDEWTQDRAKPVTQIVSAEAWGRADCGITSASYHQGVLSATILYEILLGKATLYAVLVSALVLMAMVKRKDSRGRAKRSGSGATNFSLLKQAGDVEENPGPTSTMALPVTALLLPLALLLHAARPQAVLTQPPSASGTPGQRVTISCSGSSSNIGSYTVSWYQQLPGTAPKFLIYSNNQRPSGVPDRFSGSKSGTSASLAISGLQSEDEADYYCAAWDDSLNGYVFGTGTKVTVLGGGGGSGGGGSGGGGSEVQLVQSGAEVKKPGESLKISCKGSGYDFTTYWIGWVRQMPGKGLEWMGIIYPGDSDTRYSPSVRGRVTISADKSINTAYLQWSSLEASDTAMYYCARMWTFSQDGWGQGTLVTVSSTREQKLISEEDGSGIQNPDPAVYQLRDSKSSDKSVCLFTDFDSQTNVSQSKDSDVYITDKCVLDMRSMDFKSNSAVAWSNKSDFACANAFNNSIIPEDTFFPSSDVPCDVKLVEKSFETDTNLNFQNLSVIGFRILLLKVAGFNLLMTLRLWSSRAKRSGSGVKQTLNFDLLKLAGDVESNPGPSRGHMTEYKPTVRLATRDDVPRAVRTLAAAFADYPATRHTVDPDRHIERVTELQELFLTRVGLDIGKVWVADDGAAVAVWTTPESVEAGAVFAEIGPRMAELSGSRLAAQQQMEGLLAPHRPKEPAWFLATVGVSPDHQGKGLGSAVVLPGVEAAERAGVPAFLETSAPRNLPFYERLGFTVTADVEVPEGPRTWCMTRKPGA
modifications: Synthetic Immune Receptor (SIR)
B4: 110217-A03 (protein)
chain: MALPVTALLLPLALLLHAARPDVVMTQSPSSLSASVGDRVTITCRASQDISKYLNWYQQKPGKAPKLLIYHTSRLHSGVPSRFSGSGSGTDFTLTISSLQPEDFATYYCQQGNTLPYTFGGGTKVEIKLEDLKNVFPPEVAVFCPSEAEISHTQKATLVCLATGFYPDHVELSWWVNGKEVHSGVSTDPQPLKEQPALNDSRYCLSSRLRVSATFWQNPRNHFRCQVQFYGLSENDEWTQDRAKPVTQIVSAEAWGRADCGFTSESYQQGVLSATILYEILLGKATLYAVLVSALVLMAMVKRKDSRGRAKRSGSGATNFSLLKQAGDVEENPGPTSMDWIWRILFLVGAATGAHSFEQVQLQESGPGLVKPSQTLSLTCTVSGVSLPDYGVSWIRQPPGKGLEWIGVIWGSETTYYNSALKSRVLISVDTSKNQVSLKLSSVTAADTAVYYCARHYYYGGSYAMDYWGQGTTVTVSSTRIQNPDPAVYQLRDCKSSDKSVCLFTDFDSQTNVSQSKDSDVYITDKTVLDMRSMDFKSNSAVAWSNKSDFACANAFNNSIIPEDTFFPSPESSCDVKLVEKSFETDTNLNFQNLSVIGFRILLLKVAGFNLLMTLRLWSS
B5: 110217-B04 (protein)
chain: B4 chain with C144E, D188C, C494S, T524C
B6: 110217-C03 (protein)
chain: B4 chain with C144E, S206C, C494S, T524C
B7: 110217-D01 (protein)
chain: B4 chain with C144E, S146C, Y489C, C494S
B8: 032216-C04 (protein)
chain: MALPVTALLLPLALLLHAARPDIVLTQSPATLSLSPGDRATISCRASESVTILGSHLIYWYQQKPGQPPRLLIQLASNVQTGVPARFSGSGSRTDFTLTISSVEPEDFAVYYCLQSRTIPRTFGQGTKLEIKRLEGKPIPNPLLGLDSTGSGEDLKNVFPPEVAVFEPSKAEIAHTQKATLVCLATGFYPDHVELSWWVNGKEVHSGVCTDPQPLKEQPALNDSRYCLSSRLRVSATFWQNPRNHFRCQVQFYGLSENDEWTQDRAKPVTQIVSAEAWGRADCGITSASYHQGVLSATILYEILLGKATLYAVLVSALVLMAMVKRKDSRGRAKRSGSGATNFSLLKQAGDVEENPGPTSMDWIWRILFLVGAATGAHSFEQVQLVQSGPEVKKPGESVKISCKASGYTFRHYSMNWVKQAPGQGLKWMGRINTESGVPIYADDFKGRFSFTVDTSASTAYLEISSLTSEDTAVYFCSNDYLYSLDFWGQGTTLTVSSTREQKLISEEDGSGIQNPDPAVYQLRDSKSSDKSVCLFTDFDSQTNVSQSKDSDVYITDKCVLDMRSMDFKSNSAVAWSNKSDFACANAFNNSIIPEDTFFPSSDVPCDVKLVEKSFETDTNLNFQNLSVIGFRILLLKVAGFNLLMTLRLWSSRAKRSGSGVKQTLNFDLLKLAGDVESNPGPSRGHMTEYKPTVRLATRDDVPRAVRTLAAAFADYPATRHTVDPDRHIERVTELQELFLTRVGLDIGKVWVADDGAAVAVWTTPESVEAGAVFAEIGPRMAELSGSRLAAQQQMEGLLAPHRPKEPAWFLATVGVSPDHQGKGLGSAVVLPGVEAAERAGVPAFLETSAPRNLPFYERLGFTVTADVEVPEGPRTWCMTRKPGA
modifications: Polynucleotide encoding a Synthetic Immune Receptor (SIR)

Tested on: target antigen-expressing cell line
Assay: Jurkat NFAT-GFP assay, coculture with target cell lines expressing the respective target antigen (summary Table 10A)
Type: cell-based, human
Set-up: key: The signs +/−, +, 2+ etc. after the name of the cell lines indicate the relative degree of positivity on the Jurkat-NFAT-GFP assay as measured by the % GFP positive cells; +: relative degree of positivity on the Jurkat-NFAT-GFP assay as measured by the % GFP positive cells; 2+: relative degree of positivity on the Jurkat-NFAT-GFP assay as measured by the % GFP positive cells
Conditions: relative % GFP positive cells; for NFAT-GFP ASSAY Positive Cell lines: NALM6: SIR-expressing Jurkat-NFAT-GFP cells cocultured with NALM6; for NFAT-GFP ASSAY Positive Cell lines: RAJI: SIR-expressing Jurkat-NFAT-GFP cells cocultured with RAJI
Outline: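 Read-out: % GFP+ cells by FACS. SIR-transduced, puromycin-selected Jurkat NFAT-GFP (IL-2 promoter reporter) cocultured ~4–18 h with target line, E:T ~1:2; parental cells as control; graded +/−, +, 2+ relative to parental.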

Molecule	NFAT-GFP ASSAY Positive Cell lines: NALM6	NFAT-GFP ASSAY Positive Cell lines: RAJI	NFAT-GFP ASSAY Positive Cell lines: L363 (SIR-expressing Jurkat-NFAT-GFP cells cocultured with L363)	NFAT-GFP ASSAY Positive Cell lines: U266 (SIR-expressing Jurkat-NFAT-GFP cells cocultured with U266)
B1	(+/−)	RAJI (+), NALM6	–	–
B2	(+/−)	RAJI (+), NALM6	–	–
B3	–	–	L363 (2+), U266	(2+)
B4	(+/−)	RAJI (+/−), NALM6	–	–
B5	(+/−)	RAJI (+/−), NALM6	–	–
B6	(+/−)	RAJI (+/−), NALM6	–	–
B7	(+/−)	RAJI (+/−), NALM6	–	–
B8	–	2+	–	–

Source: patent US12269859B2, “Synthetic immune receptors and methods of use thereof” (Angeles Therapeutics, Inc., priority 2016, dated 2025)
